From paper PMC1783898

Molecular target: SARS-CoV main protease, full-length wild type (3CLpro) (SARS-CoV) (UniProt P0C6X7)
Experiment: AUC

“SARS-CoV main protease, full-length wild type (3CLpro) (from UniProt P0C6X7) (enzyme)” gave a stoichiometry N of 2.
